Where two headings read alike, the source gives them in different places.
Tests used:
Test in all cases: enzyme inhibition kinetics
[1] = biological target: T1, ADAMTS5-2 (human ADAMTS-5 deletion mutant, C-terminal FLAG-tag) (human, UniProt Q9UNA0 262-874)
T1 sequence (looked up): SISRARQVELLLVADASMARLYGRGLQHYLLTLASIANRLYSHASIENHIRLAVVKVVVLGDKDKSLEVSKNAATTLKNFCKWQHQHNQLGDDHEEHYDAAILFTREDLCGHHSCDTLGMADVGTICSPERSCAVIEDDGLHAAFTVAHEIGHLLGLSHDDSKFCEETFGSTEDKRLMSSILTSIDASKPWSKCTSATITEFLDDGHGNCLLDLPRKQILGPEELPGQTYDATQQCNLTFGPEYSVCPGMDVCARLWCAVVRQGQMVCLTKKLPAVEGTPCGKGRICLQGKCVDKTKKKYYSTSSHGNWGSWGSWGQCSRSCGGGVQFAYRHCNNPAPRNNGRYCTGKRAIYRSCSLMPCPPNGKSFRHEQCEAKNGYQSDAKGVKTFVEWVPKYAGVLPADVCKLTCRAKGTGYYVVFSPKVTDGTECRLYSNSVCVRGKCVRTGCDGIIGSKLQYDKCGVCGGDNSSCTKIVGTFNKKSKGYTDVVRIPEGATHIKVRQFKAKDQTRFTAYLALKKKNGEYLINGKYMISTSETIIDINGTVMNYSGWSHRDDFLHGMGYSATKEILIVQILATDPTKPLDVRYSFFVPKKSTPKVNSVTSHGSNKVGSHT

[2] = biological target: T2, ADAMTS5-5 (human ADAMTS-5, catalytic and disintegrin domain, C-terminal FLAG-tag) (human, UniProt Q9UNA0 262-566)
T2 sequence (looked up): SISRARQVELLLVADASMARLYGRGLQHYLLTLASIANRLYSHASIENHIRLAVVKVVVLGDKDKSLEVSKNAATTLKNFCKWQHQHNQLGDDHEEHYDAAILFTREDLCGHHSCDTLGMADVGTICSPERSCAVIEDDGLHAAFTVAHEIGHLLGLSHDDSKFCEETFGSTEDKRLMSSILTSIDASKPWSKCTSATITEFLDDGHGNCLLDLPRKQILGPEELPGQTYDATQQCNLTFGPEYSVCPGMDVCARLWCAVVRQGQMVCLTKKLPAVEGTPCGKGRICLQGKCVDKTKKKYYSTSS

[3] = biological target: T3, ADAMTS5-1 (full-length human ADAMTS-5, C-terminal FLAG-tag) (human, UniProt Q9UNA0 262-930)
T3 sequence (looked up): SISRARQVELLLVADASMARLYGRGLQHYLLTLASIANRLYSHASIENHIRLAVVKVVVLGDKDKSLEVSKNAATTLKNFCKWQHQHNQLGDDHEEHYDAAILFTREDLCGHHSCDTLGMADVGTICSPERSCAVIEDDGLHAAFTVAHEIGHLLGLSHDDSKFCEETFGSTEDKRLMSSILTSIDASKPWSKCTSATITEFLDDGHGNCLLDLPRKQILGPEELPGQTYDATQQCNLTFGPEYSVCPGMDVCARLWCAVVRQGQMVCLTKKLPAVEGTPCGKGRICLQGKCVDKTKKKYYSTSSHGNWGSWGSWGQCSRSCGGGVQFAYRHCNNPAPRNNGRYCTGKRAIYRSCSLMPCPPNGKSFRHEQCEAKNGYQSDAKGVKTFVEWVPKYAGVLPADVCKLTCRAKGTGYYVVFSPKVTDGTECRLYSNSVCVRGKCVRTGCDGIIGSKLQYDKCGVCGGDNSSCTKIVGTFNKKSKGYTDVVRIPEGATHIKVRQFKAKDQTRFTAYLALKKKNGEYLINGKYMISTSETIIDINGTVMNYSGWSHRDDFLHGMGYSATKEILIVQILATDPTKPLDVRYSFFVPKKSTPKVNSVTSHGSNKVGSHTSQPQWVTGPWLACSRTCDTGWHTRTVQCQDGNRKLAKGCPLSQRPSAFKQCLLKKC

[4] = biological target: T2, ADAMTS5-5 (human ADAMTS-5, catalytic …); remark: listed apart in the source

B1: FLAG-tagged glycosylated human TIMP-3 (full-length tissue inhibitor of metalloproteinases 3), expressed in HEK293 (natural protein, UniProt P35625 24-211, looked up)
chain: CTCSPSHPQDAFCNSDIVIRAKVVGKKLVKEGPFGTLVYTIKQMKMYRGFTKMPHVQYIHTEASESLCGLKLEVNKYQYLLTGRVYDGKMYTGLCNFVERWDQLTLSQRKGLNYRYHLGCNCKIKSCYYLPCFVTSKNECLWTDMLSNFGYPGYQSKHYACIRQKGGYCSWYRGWAPPDKSIINATDP
modifications: glycosylated (only the 27 kDa glycosylated form remained after purification; single N-glycosylation site in the C-terminal domain)
With B1 the Ki [1] was 0.72 nM, the Ki [2] was 1.17 nM and the Ki [3] was 0.7 nM. For the same binder, the Ki [4] was 1.89 nM.

From article PMC2835468 (Matrix biology : journal of the International Society for …, 2009)
